# Source: publication PMC10620413, “Dimeric Transmembrane Structure of the SARS-CoV-2 E Protein” (Communications Biology, 2023)
# What was measured:
# [1] = target: SARS-CoV-2 E protein transmembrane domain E_(12–37) (SARS-CoV-2 (isolate Wuhan-Hu-1)); test: SDS-PAGE
# SDS-PAGE = target: the molecule itself; test: SDS-PAGE
molecule,measurement,setting,value
SARS-CoV-2 E protein transmembrane domain E_(12–37) (domain or fragment),stoichiometry N,[1],2
"SNAETGTLIVNSVLLFLAFVVFLLVTLAILTALRLSA (domain or fragment, not shown: MBP, N-terminal, cleaved) [SARS-CoV-2 E protein fragment E_(8–41)]",stoichiometry N,SDS-PAGE,2
